For one experiment, the target named is T1, IL-16 (Mus musculus, UniProt O54824).
T1 construct: polyhistidine fusion protein containing the 119 C-terminal residues encoded by the previously reported murine cDNA; polyhistidine (cleaved yes); made in house
T1 sequence (O54824 1204-1322): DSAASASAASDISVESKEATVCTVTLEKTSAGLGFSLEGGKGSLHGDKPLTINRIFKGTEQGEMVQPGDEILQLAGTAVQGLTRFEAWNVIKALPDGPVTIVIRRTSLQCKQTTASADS
The experiment can be described thus: IL-16-induced migration of human T-cells. Type of experiment: cell-based. The following applies: for inhibition of IL-16-mediated biological activity (migration of human T-cells): concentration not given; for effect on IL-16-induced migration of human T-cells: any concentration.

The target of the next experiment is T2, murine rIL-16 (Mus musculus, UniProt O54824).
T2 construct: polyhistidine fusion protein containing the 119 C-terminal residues encoded by the previously reported murine cDNA; polyhistidine (cleaved yes); made in house; host or cells: Escherichia coli strain HMS 174, vector pET16b
T2 sequence (O54824 1204-1322): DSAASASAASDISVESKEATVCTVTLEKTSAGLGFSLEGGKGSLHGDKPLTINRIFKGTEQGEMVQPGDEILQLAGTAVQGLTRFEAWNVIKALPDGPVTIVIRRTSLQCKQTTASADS
The experiment can be described thus: IL-16-stimulated T-lymphocyte migration, human CD4 D4 point mutants. The following applies: human CD4 D4 wild type or point mutant, rIL-16 10^-9 M. The format is cell-based. On the procedure: Point mutations at Leu 348 and Leu 349 in human CD4 were prepared as follows.
Initially 100 ng of wild type human CD4 cDNA (Richard Axel, Columbia University, N.Y.) contained within the mammalian expression vector pcDNA3.1(−) (Invitrogen, Carlsbad, Calif.) was subjected to the polymerase chain reaction (PCR) in the presence of 125 ng of each set of primer pairs. PCR conditions were as follows:
The time for the elongation step varied according to the relationship of 2 minutes per kilobase of plasmid DNA length. The product was then subjected to restriction digestion with the enzyme Dpn for 1 h. at 37° C. Dpn is specific for methylated nucleotides and therefore will only cut the original wide type CD4-plasmid DNA. The transformation reaction required the addition of 1 μl of the digest to 50 μl of Epicurean Blue Eschericia coli which was incubated on ice for 30 min. and finally heat shocked 42° C., 45 sec to seal the supercompent bacteria. The resultant bacteria culture was selected on ampicillin plates and sequenced to confirm mutagenesis.
Cell migration was assessed using a modified Boyden chamber. […] Cell migration is expressed as the mean % control migration.
Results from multiple experiments were analyzed using Student's t test for paired variables, and Tukey's test for multiple variables. A P value<0.05 was considered significant.
(FIGS. 10A and 10B). […] (FIGS. 11A and 11B).

Consider “DSGQVLLE (OTHER INFORMATION: Description of Artificial Sequence:IL-16 antagonist peptide) [aa 351-358 of human CD4]”, for which, in the experiment with IL-16, the “inhibition of IL-16-mediated biological activity (migration of human T-cells)” value is listed as “failed to inhibit”.

“GMWQCLLS (OTHER INFORMATION: Description of Artificial Sequence:IL-16 antagonist peptide) [aa 343-350 of human CD4]”: the “inhibition of IL-16-mediated biological activity (migration of human T-cells)” value in the experiment with IL-16 is recorded as “inhibited all”.

For “KVSKREKAVWVLNPEA (OTHER INFORMATION: Description of Artificial Sequence:IL-16 antagonist peptide) [16-mer of human CD4 D4]”, the “effect on IL-16-induced migration of human T-cells” value with IL-16 is recorded as “failed to effect”.

Turning to “GMWQCLLSDSGQVLLE (OTHER INFORMATION: Description of Artificial Sequence:IL-16 antagonist peptide) [aa 343-358 of human CD4 D4]”, the “concentration at which maximal inhibition was achieved” value in the experiment with IL-16 (dose curve, IL-16-induced migration of human T-cells) was no less than 10 µg/mL. Moreover, in the experiment with IL-16 (peptide 10^-10 M), the “block of IL-16-induced migration of human T-cells” value is on record as “blocked all”.

“TSPKLMLSLKLENKEA (OTHER INFORMATION: Description of Artificial Sequence:IL-16 antagonist peptide) [16-mer of human CD4 D4]”: in the experiment with IL-16, the “effect on IL-16-induced migration of human T-cells” value is “failed to effect”.

B1: NLTCEVWGPTSPKLMLSLKLENKEAKVSKREKAVWVLNPEAGMWQCLISDSGQVLLESNIKVLPTWSTPVQPM (peptide)
chain: NLTCEVWGPTSPKLMLSLKLENKEAKVSKREKAVWVLNPEAGMWQCLISDSGQVLLESNIKVLPTWSTPVQPM
modifications: OTHER INFORMATION: Description of Artificial Sequence:IL-16 antagonist peptide
notes: human CD4 D4 with Isoleucine substituted at position 349
For B1, the “inhibition of IL-16-stimulated T-lymphocyte migration” value is reported as “maintained partial ability to inhibit” in the experiment with murine rIL-16 and “Partial inhibition” in the experiment with murine rIL-16 (listed as Leucine 349 was conservatively substituted with Isoleucine).

The values are drawn from US6723697B2, “IL-16 antagonists” (Research Corporation Technologies, Inc., priority 1999, dated 2004).
